This assay addresses ERK1 MAP kinase (MAPK3), mouse (mouse, UniProt Q63844). Put plainly: cell-based or functional assay.

Non-standard residues stand in square brackets, D forms with d. No end group written: not given here.

B1: CPP-RB5 (peptide)
peptide: Ac-GRKKRRQRRRPPQGGGGGEPRRTEGVGPGVPGEVEMVKGQPFD[dV]
Take B1: the “EC50 of phospho-ERK positive cells in striatal slices (immunohistochemistry, dose response)” value turned out to be 3.4 µM.

Source of the values: patent US20230127694A1, “NEUROPROTECTIVE PEPTIDE” (published 2023).
